Assay results taken from the nanobody polyreactivity screen of Harvey et al. (2022).

Assay: yeast display, Sf9 membrane polyspecificity reagent, FACS + sequencing; frameworks hold sequencing errors
In short: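 Polyreactivity labels are assigned by the sorting gate from which each nanobody was recovered. The gates were low and high (top ~1%), set on anti-HA fluorescence for expression and streptavidin fluorescence for reagent binding. Before sorting, galactose-induced (36–48 hours) yeast display cells were stained for 1 hour at 4 °C with 10% biotinylated, detergent-solubilized Sf9 membrane reagent.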

Row | Sequence | polyreactivity (PSR sort gate)
1 | QFQLVESGGGLVQAGASLRLSCAASGSISKSYAMGWYRQAPGKERELVAAISWRGGSTYADSVKGRFTISRDNAKNTVYLQMNCLKPEDTAVYYCAATNYGTFWGGQSERYDYWGQGTQVTVSS | low polyreactivity
2 | HFQREESGGGLVQAGGSLRLTCAASGSTFGPYVMGWYRQARGKERELVAAISDTTGNTYYADSVKGRFTLSRDNAKNTVYLQMNSLKPEDTAVYYCNVDWYWGDYDYRGQGTQVTVSS | low polyreactivity
3 | QVQLVESGGGLVQAGGSLRLSCAASGSTFAGYVMGFYIQATGKERELVAAISGSGGSTYYADSVKGRFTISRDNAKKTVYLQMNSLKPEDTAVYYCAKRAIIKYRGGYGYWGQGTQVTVSS | high polyreactivity
4 | QVQLVESGGVLVQAGGSLRLSCAASARIFAYSVMGWYRQAPGKEREFVAAISWSGGRTYYAHSVKGRFTISRDNAKNTVYLQMNSLKPEDTAVYYCNAGRPLWLAYGMDYWGQGTQVTVSS | low polyreactivity
5 | QVHLVESGGGLVQAGGSLRLSCAASGITFATYAMGWYRQAPGKERELVAAISGGGGRTYYADSVKGRFTISRDNAKNSVYLQMNSLKPEDTAVYYCATSQRSSQFYHWGQGTQVTVSS | high polyreactivity
6 | QVQLVESGGGLVQAGGSLRLSCAASGITFTAYAMGWYRHAPGKERELVATINSTGITNYADSVKGRFTISRDNAKNTVYLQMNSLKPEDTAVYYCAADLLDNSSYDGMDYWGQGTQVTVSS | low polyreactivity
7 | QVQLVESGGGLVQAGGSLRLSCAASGYTFRLYAMGWYRQAPVKERELVAAINTSGGRTYYADSVKGRFTISRDNAKNTVYLQMNSLKPEDTAVYYCATDWYWKRADIRPGDYWGQGTQVTVSS | low polyreactivity
8 | QVQLVESGGGLVQAGGSRRLSCAASGRTFQYYAMGCYRQATGKERELVAAINNSGGSTYYSDSVKGRFTISRDNAKNTFYLQMNSLKQEDTAVYYCAAVSYRRHFGPYNYWGQGTQVTVSS | low polyreactivity
9 | KVQHVESGGGLVQAGGSLRLSCAASGLIFYRYAMGWYRQAPGKERELVAAISRSGSSTYYADSVKGRFTISRDNAKNTVYLQMNSLKPEDTAVYYCNAGYGWIWDDRGYWGQGSQVTVSS | high polyreactivity
10 | QVQLVESGGGLVQAGGSLRLSCAASGRIFSVYAMGWYRQAPGKERELVAAITWTGGRTYYADSVKGRFTISRDNAKNTVYLQMNSLKPEDTAVYYCNKDWGRYRYDYWGQGTQVTVSS | high polyreactivity
11 | QVQLVESGGGLVQAGGSLRLSCAASGFIFLENDMGWYRQAPGKERELVASINSGSDTNYADSVKGRFTISRDNAKNTVYLQMNSLKPEDTAVYYCNASYNGVPARYDYWGQGTQVTVSS | low polyreactivity
12 | QVQLVESGGGLVQAGGSLLLSCAASGRIFRWNAMGWYRQAPGKERELVAAIRSRGGSTYYADSVKGRFTISRDNAKNTVYLQMNSLKPEDSAVYYCNARIASYRSIYDYWGQGTQVTVSS | high polyreactivity
13 | QVQLVESGGGLVQAGGSLRLSCAASGSIFGTYAMGWYRQAPGKERELVARITRGVSTNYADSVQGRFTISRDNAKNTVYLQMNSLKPEDTAVYYCAAESGNRYEYWGQGTQVTVSS | low polyreactivity
14 | QVQLVESGGGLVQAGGSLRLSCAASGRIFSYYAMGWYRQAPGKERELVAAISWNGGSTYYADSVKGRFTISRDNAKNTVYLQMKSLKPEDTAVYYCAAESYFNNWRNRYDYCGQGTQVTVSS | high polyreactivity
15 | QVQLVESGGGLVQAGGSLRLSCAASGSILPGNTMGWYRQAPGKERELVASISNTGGNTYYADSVKGRFTISRDNAKNTVYLQMNSLKPEDTAVYYCAARFSLWFPTVYWEGILDYWGQGTQVTVSS | low polyreactivity
16 | QVQLVESGGGLVQAGGSLRLSCAASGFIFVKNAMGWYRQAPGKESELVAVISTRGGRTYYADSVKGRFTISRDNAKNTVYLQMNSLKPEDTAVYYCAAGDQYKTRRNGYGYWGQGTQVTVSS | high polyreactivity

Row | Sequence | polyreactivity (PSR sort gate)
17 | QVQLVESGGGLVQEGGSLRLSCAASGSTFRRYAMGWYRQAPGKERELVASISRSGGSTYYADSVKGRFTISRDNAKNTVYLQMNSLKSEDTAVYYCSKKPYKSAYDYSTAYDYWGQGTLVTVSS | high polyreactivity
18 | QVQLVESGGGLVQAGGSLRLSCAASGRTFPQNAMGWYRQAPGKERELVAAISRSGGRTYYADSVKGRFTISRDNAKNTVYLQMNSLKPEDTAVYYCNTDPRYPRYDYSGQGTQVTVSS | high polyreactivity
19 | QVQLVESGGALVQAGGSLRLSCAASGSTFYRNAMGWYRPAPGKERELVATISSSDGSTYYADSVKGRFTISRDNAKNTVYVQMNSLKPEDTAVYYCNADPISSGSVANFQYDYCGQGTQVTVSS | low polyreactivity
20 | QVQLEETGGGLVQAGGSLRLSCSASGRTLYYYAMGWYRQAHGKDRELVAAISKRGGSTYYADSVQGRFTISRDNAKNTVYLQINSLKPVDTAVFYCAASSGLDSWGQGTQVTVSS | high polyreactivity
21 | QVQLVESGGGLVQAGGSLRLSCAASGRIFGQYAMGWYRQAPGKERELVASIRSGGSTNYADSVKGRFTISRDNAKNTVYLQMNSLKPADSAVYYCNRRSGRTSRFHDYGYWGQGTQVTVSS | high polyreactivity
22 | QVHLVETGGGLVQAGGSLRLSCAASGSTFSFNAMGWYRQAPGKERELVAAISTSGGDTYYADSVKGRFTISRDNAKNTVYLQMNSLKPEDTAVYYCAAEYQVPGGSWMDYWGQGTQVTVSS | high polyreactivity
23 | QVQLVESGGGLVQAGGSLRLSCAASVRIFVDNTMGLYRQAPGKERELVAVITSGGSTNYADSVKGRFTISRDNAKNTVYLQMNSLKPEDTAVYYCATEPGGDRFDDRPFQYGYWGQGTQVTVSS | low polyreactivity
24 | QVQLVESGGGLVQAGGSLRLSCAASGRIIFTNAMGWYRQARGKERELVASISRGGVRTYYADSVKGRFTISRDNAKNTVYLQMNSLKPEDTAVYYCDKGYHLVLPPLPQYDYWGQGTQVTVSS | low polyreactivity
25 | QVQLVESGGGLVQAGGSLRLSCAASGFIFNRYAMGWYRQAPGKERELVADITGGSTYYADSVKGLFTISRDNAKNTVFLQMNSLKPEDTAVYYCAADVLRISTLLFRGPGFDSWGQGTQVTVSS | low polyreactivity
26 | QVQLVESGGGLVQAGGSLRLSCAASGIIFYGNAMGWYRQAPGKERELVAAISWSGSSTYYADSVKGRFTISRDNAKNTVYLQMNSLKPEDTAVYYCNKATSSVRYLKYYYWGQGTQVTVSS | high polyreactivity
27 | QVQLVESGGGLVQAGGSLRLSCAASGRIFSAYAMGWYRQAPGKERELVAAISRSGGRTYYADSVKGRFTISRDNAKNTVYLQMNSLKPEDTAVYYCAAARFAIVRGDYWGQGTQVTVSS | high polyreactivity
28 | QVQLVESGGGLVQAGGSLRLSCAASGLTFRYYTMGWYRQAPGKERELVAAISRTVGSTYYADSVKGRFTISRDNAKNTVYLQMNSLKPEDTAVYYCAAKYEQYSPAVIYYYWGQGTQVTVSS | high polyreactivity
29 | QVQLLESWGGLVQAGGSLRLSCAASGSIFSYYAMGWYRQAPGKERELVATISSGDSTYYADTVKGRFTISRDNAKNTVYLQMHSLNPEDTEVYYCARKPRIRYYPAPYDYWGQGTQVTVSS | low polyreactivity
30 | QVQLVESGGCLVQAGGSLRLSCASSGSTIGGYAMGWYRQAPGKERELVAAITWNGGRTYYADSVKGRFTISRDNAKNTVYVQMTSLKQEDTAVYYCATLNLSRSKRVSGGGYWGQGTQVTVSS | high polyreactivity
31 | QVQLVESGGGLVQAGGSLRISCAASGRTFAFYAMGRYRQAPGKERELVACISSSGDRTYYADSVKGRFTISRDNAKNTVYLQMNSLKPEDTAVYYCAARWRYTYYYWGQGTQVTVSS | high polyreactivity
